B1: Ribonuclease, P00648 (parent)
chain: MMKMEGIALKKRLSWISVCLLVLVSAAGMLFSTAAKTETSSHKAHTEAQVINTFDGVADYLQTYHKLPDNYITKSEAQALGWVASKGNLADVAPGKSIGGDIFSNREGKLPGKSGRTWREADINYTSGFRNSDRILYSSDWLIYKTTDHYQTFTKIR

Variants of: B1
Conditions: Bacillus amyloliquefaciens; pH 6.3; 25 °C; Urea; Fluorescence; MES-NaOH 50 mM; reversible: yes; structure 1BNI; whole UniProt chain shown

Variant | ddG of mutation (higher = less stable) | denaturant m value | denaturant midpoint (higher = more stable) | unfolding free energy
D59A | -0.11 kcal/mol | 2.33 kcal/mol/M | 4.33 M | 10.1 kcal/mol
D59A T63R | 0.13 kcal/mol | 2.24 kcal/mol/M | 4.4 M | 9.88 kcal/mol
T63R | 0.78 kcal/mol | 1.94 kcal/mol/M | 4.75 M | 9.23 kcal/mol
